Reference: patent US20100209400A1, “TAK1-Mediated Regulation of Osteogenesis” (priority 2003, published 2010)

Columns and labels:
SMAD proteins = experiment: Co-immunoprecipitation of TAK1 variants with SMADs from HEK293T cells; type: binding; conditions: SMAD7, R-SMADs 1-3, 5, SMAD4
Experimental: Co-immunoprecipitation were conducted as described (Verschueren K et al, J. Biol. Chem, 274: 20489-20498, 1999). Human embryonic kidney (HEK) 293T cells were plated at 3×10^6 cells/petri dish (55 square centimeters (cm^2)) one day prior to transfection. For transient transfections, 1 μg of Flag-tagged expression plasmid and 2 μg of Myc- or HA-tagged expression plasmids were utilized. DNA content was normalized with empty vector. Transfections were performed with FuGENE6 (Roche, Mannheim). Roughly 36 hours post-transfection cells were dislodged from dishes and harvested by centrifugation. Pellets were shock frozen in liquid nitrogen. […] reactions were performed in lysis buffer. Cell extracts and immunoprecipitates were analyzed by SDS-PAGE and Western blot analysis using the appropriate antibodies.
Toward this end, co-immunoprecipitation with various combinations of wild-type TAK1 (TAK1wt) and R-SMADs, either in a latent form or post-activation by constitutively active BMP type I receptor (ALK6ca, BMPR-IB) or activin type I receptor ALK4ca (ActR-IB), I-SMADs and SMAD4, were conducted. […] TAK1 interaction with R-SMADs was typically stronger in the absence of constitutively active receptors (the exception being SMAD3), which may reflect a reduced affinity for activated, i.e. phosphorylated R-SMADs by TAK1, except with SMAD3.
SMAD proteins only bind TAK1 with an intact or a constitutively active kinase domain. Different TAK1 variants such as TAK1wt, TAK1ca, TAK1dn and two deletions, TAKDN (lacking amino acids 1-300; FIG. 1a) and TAKDC (lacking 301-606; FIG. 1a), respectively, were tested for their ability to bind to R-SMADs (using SMAD1 as a representative) or I-SMAD6 and I-SMAD7.

[1] = system: SMAD1 trans-activation potential; experiment: GAL4 DBD-SMAD1 luciferase trans-activation reporter assay; type: cell-based, human
Experimental: Reporter assays using the GALA DNA binding domain fused to various forms of SMAD proteins were performed as described (Meersseman, G at al, Mech. Dev, 61: 127-140, 1997). Briefly, 420 nanograms (ng) DNA was transfected/well (24 well-plate seeded with 1×10^5 HEK 293T cells) one day prior to transfection. The DNA mix included a plasmid expressing β-galactosidase under the control of the RSV promoter, for normalization purposes and a reporter plasmid encoding firefly luciferase under the control of 5 GAL4 binding sites upstream of a minimal TATA box (pG5 luc, Promega, Mannheim) and combinations of effector plasmids. The DNA content was normalized with empty vector.
Cells were harvested and lysed. β-Galactosidase (β-gal) activity was measured via the luminescent β-galactosidase kit II (Clontech, Palo Alto, Calif.), and luciferase activity via the luciferase assay system (Promega, Mannheim). All results are expressed as luciferase activity normalized with β-gal values (“relative luciferase activities”). Reporter assays with the SMAD1 DNA binding element SBE-9 (GCCG×9) (Kusanagi K et al, Mol Biol Cell 11: 555-565, 2000) cloned into pCAT5 vector (Boshart M et al, Gene 110: 129-130, 1992) were performed similarly except that cells were lysed in CAT lysis buffer. CAT enzyme was measured via CAT ELISA assay and β-gal via chemiluminescent β-gal reporter gene assay (Roche, Mannheim).
To determine whether MH2 domains involved in TAK1 binding mediated inhibition of R-SMAD biological activity, a reporter assay measuring SMAD trans-activation potential was performed. Full-length SMAD1 and deletion mutants thereof were fused in-frame with the GAL4-DNA binding domain, and SMAD trans-activation potential was measured via UAS-driven-luciferase reporter expression (FIGS. 6B & C). The trans-activating potential of SMAD1/GAL4 hybrid molecules was measured with increasing amounts of TAK1 variants. […]

[2] = system: nucleo-cytoplasmic shuttling of SMAD1 and SMAD3; experiment: Immunofluorescence of Flag-tagged SMAD1 and SMAD3 localisation in HEK293T cells; type: cell-based, human; conditions: Flag-tagged SMADs
Experimental: HEK293T cells were seeded at 2×10^5 cells/well into poly-D-lysine coated 6-well plates one day prior to transfection. Transient transfections were conducted with Fugene 6. After 30 hours, the cells were fixed with 4% paraformaldehyde in phosphate buffered saline (PBS) for 10 minutes, washed twice with PBS, and permeabilized with methanol followed by 0.5% Triton-X 100 in PBS. After washing with 0.1% Triton-X 100 in PBS (PBT), blocking was performed with 5% FCS in PBT for 1 hour at room temperature. Following another PBT wash, tagged proteins were incubated with the appropriate primary antibodies. Detection was accomplished via goat anti mouse-Alexa 488 (A-11001, Molecular Probes) (5 μg/ml) antibody for murine primary antibodies.
To determine whether TAK1-dependent interference with SMAD activity affected subcellular distribution of SMAD, immunofluorescence was used to localize flag-tagged SMAD1 or SMAD3 expressed in HEK293T cells in the absence or presence of constitutively active receptors (FIG. 7).

B1: TAK1dn: dominant-negative TAK1 mutant (K63W), kinase inactive (protein)
chain: MSTASAASSSSSSSASEMIEAPSQVLNFEEIDYKEIEVEEVVGRGAFGVVCKAKWRAKDVAIWQIESESERKAFIVELRQLSRVNHPNIVKLYGACLNPVCLVMEYAEGGSLYNVLHGAEPLPYYTAAHAMSWCLQCSQGVAYLHSMQPKALIHRDLKPPNLLLVAGGTVLKICDFGTACDIQTHMTNNKGSAAWMAPEVFEGSNYSEKCDVFSWGIILWEVITRRKPFDEIGGPAFRIMWAVHNGTRPPLIKNLPKPIESLMTRCWSKDPSQRPSMEEIVKIMTHLMRYFPGADEPLQYPCQYSDEGQSNSATSTGSFMDIASTNTSNKSDTNMEQVPATNDTIKRLESKLLKNQAKQQSESGRLSLGASRGSSVESLPPTSEGKRMSADMSEIEARIVATAGNGQPRRRSIQDLTVTGTEPGQVSSRSSSPSVRMITTSGPTSEKPARSHPWTPDDSTDTNGSDNSIPMAYLTLDHQLQPLAPCPNSKESMAVFEQHCKMAQEYMKVQTEIALLLQRKQELVAELDQDEKDQQNTSRLVQEHKKLLDENKSLSTYYQQCKKQLEVIRSQQQKRQGTS
modifications: left off: small tags and cut ends
binding of TAK1 variant to SMAD proteins (co-immunoprecipitation) (SMAD proteins): blocked binding | trans-activating potential of GAL4-SMAD1-MH2 and GAL4-SMAD1-L+MH2 constructs ([1]; FIG. 6C): no effect | trans-activation activity after sharp drop from elevated value ([1]; higher amounts of TAK1dn): roughly 70% | increase of SMAD trans-activation ([1]; low concentrations of TAK1dn): 35% | subcellular localisation of SMAD1 and SMAD3 [2]: predominantly in the nucleus
